Measurements taken from patent US20250042963A1, “METHODS FOR TREATING MYELOPROLIFERATIVE DISORDERS” (Acceleron Pharma Inc., priority 2015, published 2025).
One block for each molecule: values may come before it.

Columns and labels:
myelofibrosis patients = details: anemic myelofibrosis patients; cited from earlier work
[1] = tested on: patients with a myeloproliferative disorder; details: cited from earlier work; for toxicity: patients with splenomegaly
human TGFβ3 = molecular target: T1, human TGFβ3 (Homo sapiens, UniProt P10600); assay: Reporter gene assay in A549 cells (pGL3(CAGA)12), inhibition of TGFβ3 activity; type: cell-based; details: for inhibition of TGFβ3 activity / signaling (in words): cell-based reporter assay; for IC50: A549 reporter gene assay, hTGFβ3 270 pg/ml
T1 construct: purchased PeproTech
T1 sequence (P10600 301-412 limits assumed): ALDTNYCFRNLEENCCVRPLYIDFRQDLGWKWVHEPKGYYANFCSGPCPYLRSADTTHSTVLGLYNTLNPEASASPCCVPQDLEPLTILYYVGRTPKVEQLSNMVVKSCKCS
Text: (§1) A reporter gene assay in A549 cells was used to determine the ability of hTβRII-hFc variants to inhibit activity of TGFβ1, TGFβ2, and TGFβ3. This assay is based on a human lung carcinoma cell line transfected with a pGL3(CAGA)12 reporter plasmid (Dennler et al., 1998, EMBO 17: 3091-3100) as well as a Renilla reporter plasmid (pRLCMV) to control for transfection efficiency.
(§2) On the first day of the assay, A549 cells (ATCC®: CCL-185™) were distributed in 48-well plates at 6.5×10^4 cells per well. On the second day, a solution containing 10 μg pGL3(CAGA)12, 100 ng pRLCMV, 30 μl X-tremeGENE 9 (Roche Applied Science), and 970 μl OptiMEM (Invitrogen) was preincubated for 30 min, then added to Eagle's minimum essential medium (EMEM, ATCC®) supplemented with 0.1% BSA, which was applied to the plated cells (500 μl/well) for incubation overnight at […]. On the third day, medium was removed, and cells were incubated overnight at 37° C. with a mixture of ligands and inhibitors prepared as described below.
Serial dilutions of test articles were made in a 48-well plate in a 200 μl volume of assay buffer (EMEM+0.1% BSA). […] Human TGFβ 1, human TGFβ2, and human TGFβ3 were obtained from PeproTech. Test solutions were incubated at 37° C. for 30 minutes, then 250 μl of the mixture was added to all wells. Each concentration of test article was determined in duplicate. After incubation with test solutions overnight, cells were rinsed with phosphate-buffered saline, then lysed with passive lysis buffer (Promega E1941) and stored overnight at −70° C. On the fourth and final day, plates were warmed to room temperature with gentle shaking. Cell lysates were transferred in duplicate to a chemiluminescence plate (96-well) and analyzed in a luminometer with reagents from a Dual-Luciferase Reporter Assay system (Promega E1980) to determine normalized luciferase activity.

human TGFβ1 = molecular target: T2, human TGFβ1 (Homo sapiens, UniProt P01137); assay: Reporter gene assay in A549 cells (pGL3(CAGA)12), inhibition of TGFβ1 activity; type: cell-based; details: for IC50: A549 reporter gene assay, hTGFβ1 640 pg/ml; for inhibition of TGFβ1 activity / signaling (in words): cell-based reporter assay
T2 construct: purchased PeproTech
T2 sequence (P01137 279-390 limits assumed): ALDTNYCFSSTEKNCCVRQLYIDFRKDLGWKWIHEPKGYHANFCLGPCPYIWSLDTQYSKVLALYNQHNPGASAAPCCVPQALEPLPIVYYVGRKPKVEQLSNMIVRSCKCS
Text: as §1, with “efficiency. The CAGA motif is present in the promoters of TGFβ-responsive genes (for example, PAI-1), so this vector is of general use for factors signaling through SMAD2 and SMAD3.” for “efficiency.”
as §2
(§3) Serial dilutions of test articles were made in a 48-well plate in a 200 μl volume of assay buffer (EMEM+0.1% BSA). An equal volume of assay buffer containing the test ligand was added to obtain a final ligand concentration equal to the EC50 determined previously. Human TGFβ 1, human TGFβ2, and human TGFβ3 were obtained from PeproTech. Test solutions were incubated at 37° C. for 30 minutes, then 250 μl of the mixture was added to all wells. Each concentration of test article was determined in duplicate. After incubation with test solutions overnight, cells were rinsed with phosphate-buffered saline, then lysed with passive lysis buffer (Promega E1941) and stored overnight at −70° C. On the fourth and final day, plates were warmed to room temperature with gentle shaking. Cell lysates were transferred in duplicate to a chemiluminescence plate (96-well) and analyzed in a luminometer with reagents from a Dual-Luciferase Reporter Assay system (Promega E1980) to determine normalized luciferase activity.

human TGFβ2 = molecular target: T3, human TGFβ2 (Homo sapiens, UniProt P61812); assay: Reporter gene assay in A549 cells (pGL3(CAGA)12), inhibition of TGFβ2 activity; type: cell-based; details: Summary of Ligand Selectivity; cell names the ligand in this class
T3 construct: purchased PeproTech
T3 sequence (P61812 303-414 limits assumed): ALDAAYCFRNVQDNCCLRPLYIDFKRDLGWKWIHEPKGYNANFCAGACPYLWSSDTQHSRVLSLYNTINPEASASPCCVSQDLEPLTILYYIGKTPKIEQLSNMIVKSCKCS
Text: as §1, with “efficiency. The CAGA motif is present in the promoters of TGFβ-responsive genes (for example, PAI-1), so this vector is of general use for factors signaling through SMAD2 and SMAD3.” for “efficiency.”
as §2, §3

[2] = Summary of Ligand Selectivity, cell names the ligand in this class
[3] = third experiment (C-terminal truncation, N70D)

Molecule: C#C[C@]1(O)CC[C@H]2[C@@H]3CCC4=Cc5oncc5C[C@]4(C)[C@H]3CC[C@@]21C [danazol]
response rate / responses in anemia (% of patients) (myelofibrosis patients): around 20%

Molecule: NC(=O)NO [HC, Hydroxycarbamide]
patients with reductions in spleen size from 25%-50% ([1]; patients treated with HC): up to 35%
toxicity [1]: exacerbate cytopenias

Molecule: Nc1nc(Cl)nc2c1ncn2[C@H]1C[C@H](O)[C@@H](CO)O1 [cladribine]
toxicity [1]: severe but reversible cytopenias
spleen responses / response rate ([1]; symptomatic splenomegaly): up to 50%

B1: TβRIIshort(23-153/N70D)-G2Fc: C-terminally truncated short-isoform ECD with N70D substitution fused to IgG2 Fc; SEQ ID NO: 41 (unprocessed), 61 (mature) (protein)
chain: TIPPHVQKSVNNDMIVTDNNGAVKFPQLCKFCDVRFSTCDNQKSCMSDCSITSICEKPQEVCVAVWRKNDENITLETVCHDPKLPYHDFILEDAASPKCIMKEKKKPGETFFMCSCSSDECNDNIIFSEEYTGGGVECPPCPAPPVAGPSVFLFPPKPKDTLMISRTPEVTCVVVDVSHEDPEVQFNWYVDGVEVHNAKTKPREEQFNSTFRVVSVLTVVHQDWLNGKEYKCKVSNKGLPAPIEKTISKTKGQPREPQVYTLPPSREEMTKNQVSLTCLVKGFYPSDIAVEWESNGQPENNYKTTPPMLDSDGSFFLYSKLTVDKSRWQQGNVFSCSVMHEALHNHYTQKSLSLSPGK
Degree of Ligand Inhibition: Potent (ligand TGFβ3) (human TGFβ3; [2]): TGFβ3
inhibition of TGFβ3 activity / signaling (in words) (human TGFβ3): virtually undiminished ability to inhibit TGFβ3
IC50 (human TGFβ1; [3]): 17.7 nM
inhibition of TGFβ1 activity / signaling (in words) (human TGFβ1): greatly diminished ability to inhibit TGFβ1
Degree of Ligand Inhibition: Negligible (ligand TGFβ2) (human TGFβ2): TGFβ2

B2: TβRIIshort(23-153)-G2Fc: C-terminally truncated (6 aa) short-isoform ECD fused to IgG2 Fc; SEQ ID NO: 37 (unprocessed), 59 (mature) (protein)
chain: TIPPHVQKSVNNDMIVTDNNGAVKFPQLCKFCDVRFSTCDNQKSCMSNCSITSICEKPQEVCVAVWRKNDENITLETVCHDPKLPYHDFILEDAASPKCIMKEKKKPGETFFMCSCSSDECNDNIIFSEEYTGGGVECPPCPAPPVAGPSVFLFPPKPKDTLMISRTPEVTCVVVDVSHEDPEVQFNWYVDGVEVHNAKTKPREEQFNSTFRVVSVLTVVHQDWLNGKEYKCKVSNKGLPAPIEKTISKTKGQPREPQVYTLPPSREEMTKNQVSLTCLVKGFYPSDIAVEWESNGQPENNYKTTPPMLDSDGSFFLYSKLTVDKSRWQQGNVFSCSVMHEALHNHYTQKSLSLSPGK
IC50 (human TGFβ3; [3]): 0.14 nM
IC50 (human TGFβ1; [3]): 2.62 nM

Next, values leading:

Degree of Ligand Inhibition: Negligible (ligand TGFβ3) (human TGFβ3; [2]): TGFβ3
inhibition of TGFβ3 activity / signaling (in words) (human TGFβ3): greatly diminished ability to inhibit
Degree of Ligand Inhibition: Moderate (ligand TGFβ1) (human TGFβ1; [2]): TGFβ1
inhibition of TGFβ1 activity / signaling (in words) (human TGFβ1): maintains some TGFβ1 inhibitor effects
Degree of Ligand Inhibition: Negligible (ligand TGFβ2) (human TGFβ2): TGFβ2
B3: TβRIIshort(35-159)-G2Fc: N-terminally truncated (12 aa) short-isoform ECD fused to IgG2 Fc; SEQ ID NO: 33 (unprocessed), 57 (mature) (protein)
chain: DMIVTDNNGAVKFPQLCKFCDVRFSTCDNQKSCMSNCSITSICEKPQEVCVAVWRKNDENITLETVCHDPKLPYHDFILEDAASPKCIMKEKKKPGETFFMCSCSSDECNDNIIFSEEYNTSNPDTGGGVECPPCPAPPVAGPSVFLFPPKPKDTLMISRTPEVTCVVVDVSHEDPEVQFNWYVDGVEVHNAKTKPREEQFNSTFRVVSVLTVVHQDWLNGKEYKCKVSNKGLPAPIEKTISKTKGQPREPQVYTLPPSREEMTKNQVSLTCLVKGFYPSDIAVEWESNGQPENNYKTTPPMLDSDGSFFLYSKLTVDKSRWQQGNVFSCSVMHEALHNHYTQKSLSLSPGK

Degree of Ligand Inhibition: Negligible (ligand TGFβ3) (human TGFβ3; [2]): TGFβ3
inhibition of TGFβ3 activity / signaling (in words) (human TGFβ3): greatly diminished ability to inhibit
Degree of Ligand Inhibition: Moderate (ligand TGFβ1) (human TGFβ1; [2]): TGFβ1
inhibition of TGFβ1 activity / signaling (in words) (human TGFβ1): maintains some TGFβ1 inhibitor effects
Degree of Ligand Inhibition: Negligible (ligand TGFβ2) (human TGFβ2): TGFβ2
B4: TβRIIshort(29-159)-G2Fc: N-terminally truncated (6 aa) short-isoform ECD fused to IgG2 Fc; SEQ ID NO: 29 (unprocessed), 55 (mature) (protein)
chain: QKSVNNDMIVTDNNGAVKFPQLCKFCDVRFSTCDNQKSCMSNCSITSICEKPQEVCVAVWRKNDENITLETVCHDPKLPYHDFILEDAASPKCIMKEKKKPGETFFMCSCSSDECNDNIIFSEEYNTSNPDTGGGVECPPCPAPPVAGPSVFLFPPKPKDTLMISRTPEVTCVVVDVSHEDPEVQFNWYVDGVEVHNAKTKPREEQFNSTFRVVSVLTVVHQDWLNGKEYKCKVSNKGLPAPIEKTISKTKGQPREPQVYTLPPSREEMTKNQVSLTCLVKGFYPSDIAVEWESNGQPENNYKTTPPMLDSDGSFFLYSKLTVDKSRWQQGNVFSCSVMHEALHNHYTQKSLSLSPGK

Degree of Ligand Inhibition: Moderate (ligand TGFβ3) (human TGFβ3; [2]): TGFβ3
inhibition of TGFβ3 activity / signaling (in words) (human TGFβ3): intermediate inhibition
IC50 (human TGFβ1; first experiment (D110K)): > 73.6 nM
inhibition of TGFβ1 activity / signaling (in words) (human TGFβ1): loss of inhibition
Degree of Ligand Inhibition: Negligible (ligand TGFβ2) (human TGFβ2): TGFβ2
B5: TβRIIshort(23-159/D110K)-G2Fc: full-length short-isoform ECD with D110K substitution fused to IgG2 Fc; SEQ ID NO: 25 (unprocessed), 53 (mature) (protein)
chain: TIPPHVQKSVNNDMIVTDNNGAVKFPQLCKFCDVRFSTCDNQKSCMSNCSITSICEKPQEVCVAVWRKNDENITLETVCHDPKLPYHKFILEDAASPKCIMKEKKKPGETFFMCSCSSDECNDNIIFSEEYNTSNPDTGGGVECPPCPAPPVAGPSVFLFPPKPKDTLMISRTPEVTCVVVDVSHEDPEVQFNWYVDGVEVHNAKTKPREEQFNSTFRVVSVLTVVHQDWLNGKEYKCKVSNKGLPAPIEKTISKTKGQPREPQVYTLPPSREEMTKNQVSLTCLVKGFYPSDIAVEWESNGQPENNYKTTPPMLDSDGSFFLYSKLTVDKSRWQQGNVFSCSVMHEALHNHYTQKSLSLSPGK

IC50 (human TGFβ3; first experiment (D110K)): 0.14 nM
Degree of Ligand Inhibition: Potent (ligand TGFβ3) (human TGFβ3; [2]): TGFβ3
IC50 (human TGFβ1; first experiment (D110K)): 1.73 nM
Degree of Ligand Inhibition: Potent (ligand TGFβ1) (human TGFβ1; [2]): TGFβ1
Degree of Ligand Inhibition: Negligible (ligand TGFβ2) (human TGFβ2): TGFβ2
B6: TβRIIshort(23-159)-G2Fc: wild-type human TβRII short isoform ECD (23-159) fused to human IgG2 Fc; SEQ ID NO: 50, with TPA leader SEQ ID NO: 52 (protein)
chain: TIPPHVQKSVNNDMIVTDNNGAVKFPQLCKFCDVRFSTCDNQKSCMSNCSITSICEKPQEVCVAVWRKNDENITLETVCHDPKLPYHDFILEDAASPKCIMKEKKKPGETFFMCSCSSDECNDNIIFSEEYNTSNPDTGGGVECPPCPAPPVAGPSVFLFPPKPKDTLMISRTPEVTCVVVDVSHEDPEVQFNWYVDGVEVHNAKTKPREEQFNSTFRVVSVLTVVHQDWLNGKEYKCKVSNKGLPAPIEKTISKTKGQPREPQVYTLPPSREEMTKNQVSLTCLVKGFYPSDIAVEWESNGQPENNYKTTPPMLDSDGSFFLYSKLTVDKSRWQQGNVFSCSVMHEALHNHYTQKSLSLSPGK
